From publication PMC8849337

Experiments:
Experiment in all cases: pull-down
[1] = molecular target: MBP-3C–PPM-1.D–truncated–10×HIS (C. elegans)
[2] = molecular target: PPM-1.D(568-766) (C. elegans)
[3] = molecular target: MBP–PPM-1.D–10×HIS (C. elegans)

fold binding relative to the MBP affinity tag (NRDE2∆N control) [1]: 4 times
fold less binding than PPM-1.D [2]: 10 times
fold more binding than PPM-1.D^trunc [2]: 7 times
fold binding relative to PPM-1.D lacking the C terminus [3]: 70 fold
B1: GST–CHK-2–3×FLAG (enzyme)
chain: MVRGTKRRRSSAEKPIVVVPVTRDDTMPVDEDLVVGESQCAASKPFAKLVGVRRGISSIDLADDHFVCGRGSDDAPTNFNFSQVAKDVGLYRFISKIQFSIDRDTETRRIYLHDHSRNGTLVNQEMIGKGLSRELMNGDLISIGIPALIIFVYESADADHHPEELTKKYHVTSHSLGKGGFGKVLLGYKKSDRSVVAIKQLNTQFSTRCSRAIAKTRDIRNEVEVMKKLSHPNIVAIYDWITVAKYSYMVIEYVGGGEFFSKVVDSKYNRMGLGESLGKYFAFQLIDAILYLHSVGICHRDIKPENILCSDKAERCILKLTDFGMAKNSVNRMKTRCGTPSYNAPEIVANEGVEYTPKVDIWSLGCVLFITFSGYPPFSEEYTDMTMDEQVLTGRLIFHAQWRRITVETQNMIKWMLTVEPSNRPSAVELMSTQWMKCADCRTAKQDILKSIKPISAAAPAALQTTQAGPVKKAKM
